Test results taken from patent publication US20220241369A1, “COMPOSITIONS AND METHODS OF MODULATING INFLAMMATION” (La Jolla Institute for Allergy and Immunology, priority 2018, published 2022).

What was measured:
[1] = tested on: c-Kit+ mucosal mast cells of the small intestine; test: Ex vivo mast cell activation test (MCAT); assay type: cell-based, mouse; details: cells from allergic mice, HRF-2CA 300 μg/ml
Method: FIGS. 2A-2C show mucosal mast cells can be activated ex vivo by antigen. Cells were released with EDTA from small intestines of non-sensitized/OVA challenged (Cont) or OVA-sensitized/OVA-challenged (OVA) mice, and mononuclear cells were selected. The cells were incubated for 15 min at 37° C. with OVA or anti-IgE antibody, and activation of Kit^+ mast cells was measured by flow cytometry (FIG. 2A, FIG. 2B). **, ***: p<0.01, p<0.001 by Student's t-test. (n=2; a representative of 2 independent experiments) (FIG. 2C) Mucosal cells derived from OVA-sensitized/OVA-challenged mice were stimulated with PBS (n=4), OVA (10 ng/ml, n=4) or HRF dimer (100 μg/ml, n=2) in the presence or absence of HRF-2CA (300 μg/ml).
FIGS. 11A-11C show HRF dimer, but not monomer can activate mast cells. (FIG. 11A) Purified dimeric and monomeric HRF expressed in E. coli. Recombinant HRF-[…] was purified first by Histrap HP and then Sephacryl S-200 HR16/60. Two peaks were observed by Sephacryl size fractionation. The first (Fr1) and second (Fr3) peaks contained dimer and monomer, respectively, as shown by SDS-PAGE. Fr1 and Fr3 were used for mast cell stimulation. (FIG. 11B) Cells were released with 10 mM EDTA from small intestines of OVA-sensitized/OVA-challenged mice, and mononuclear cells were selected. The cells were incubated for 15 min at 37° C. with mHRF monomer or dimer (100 μg/ml), or PBS, and Kit^+ mast cell activation (LAMP-1^+) was measured by flow cytometry (n=3). (FIG. 11C) Control experiments indicate an excellent specificity of the assay for HRF multimers. HRF-2CA (2CA) was used as a monomer control (n=2 for each concentration). Note that total concentrations of the 1:9 mixture of dimer:monomer gave almost the same luminescence values as did ten-fold less concentrations of dimer.
Twenty-four hours after the last OVA challenge, mice were sacrificed and small intestines (0.5-15 cm from stomach) were collected. The intestinal tissues were opened longitudinally and washed with PBS. Then, the tissues were incubated with 10 mM EDTA-PBS for 30 min at 37° C. After incubation, the tissues were transferred to 30 ml PBS in 50 ml tubes and vigorously shaken. After washed, the cells were resuspended in 40% Percoll solution and slowly loaded on the top of 75% Percoll solution. The cells were then centrifuged (2000 rpm, 20 min) and lymphocytes were collected. The cells were once centrifuged and resuspended in Tyrode's buffer. Abs (Biotin-anti-CD4 mAb (clone RM4-5), Biotin-anti-CD8 mAb (clone 53-6.7), Biotin-anti-B220 mAb (clone RA3-6B2), Biotin-anti-CD326 mAb (clone G8.8), PE-anti-CD117 (clone 2B8), AlexaFluor647-anti-LAMP-1 mAb (clone 1D4B)) (Biolegend) were added and cells were then stimulated with OVA, anti-IgE (clone RME-1, BioLegend) and recombinant dimeric murine HRF for 15 min at 37° C. After activation, cells were washed and incubated with FITC-streptavidin (Catalog #405202, Biolegend) for 30 min at 4° C. LAMP-1 expression was detected using FACS Calibur. Data were analyzed using FlowJo software.

IgE+ mMCP-1+ mast cells = test: Localization of gavaged HRF inhibitors in jejunum by confocal microscopy; assay type: in vivo, mouse; details: using anti-His tag, data not shown
Method: HRF multimers in the jejunum of non-sensitized/OVA challenged (Cont, n=6) or OVA-sensitized/OVA-challenged (OVA, n=5) mice were quantified by a newly developed ELISA (FIG. 3A, FIG. 3C). HRF was also measured by ELISA (FIG. 3B). HRF dimer and monomer were quantified by western blotting in control (Cont) and food allergic mice treated without (OVA) or with GST (GST) or GST-N19 (N19) (n=5 for each group) (FIG. 3D). Allergic diarrhea was induced by 6 challenges. On the day of 7th challenge, the mice were gavaged with 0.1 mg of GST or GST-N19 (FIG. 3E). One hour later, mice were sacrificed without OVA challenge. Jejunum tissues were stained for GST, IgE, and mMCP-1 before confocal microscopy (n=5 for GST and n=6 for GST-N19). Arrows indicate cells positive for GST or GST-N19 as well as IgE and mMCP-1. […] Bars=50 μm.
Jejunum biopsy was fixed in 4% paraformaldehyde at 4° C., washed in 10-20% sucrose in phosphate buffered saline, and embedded in O.C.T. compound (Sakura Finetek, Japan). Cyrosections were made in 6 μm and blocked with 2% skim milk. Immunostaining was performed with anti-HRF (rabbit polyclonal FL-172), anti-GST (rabbit polyclonal Z-5) (Santa Cruz Biotechnology), anti-IgE (clone RME-1 from Biolegend and clone R35-72 from BD Biosciences), anti-mMCP1 (Catalog #AF5146, R&D Systems), anti-CD45 (clone 30-F11), anti-CD63 (clone NVG-2) (Biolegend), and anti-Siglec F (clone E50-2440, BD Biosciences) as primary antibodies, and anti-Rabbit Alexa Fluor 647 (Catalog #A21245), anti-Rat Alexa Fluor 568 (Catalog #A11077), and anti-Sheep Alexa Fluor 555 (Catalog #A11015) (Thermo Fisher Scientific) as secondary antibodies. Coverslips were mounted with Prolong Gold with DAPI (Thermo Fisher Scientific) and fluorescence was observed under Leica TCS SP2 confocal microscopy (Leica) and Nuance Multi spectral Imaging System (PerkinElmer).
Applicant next tested whether HRF inhibitors target mucosal mast cells. To this end, mice with allergic diarrhea were i.g. gavaged with GST-N19 or GST, and their location was identified 1 h after their gavage.

B1: HRF-2CA-His6, a monomeric mutant of mouse HRF (protein)
chain: MIIYRDLISHDELFSDIYKIREIADGLALEVEGKMVSRTEGAIDDSLIGGNASAEGPEGEGTESTVVTGVDIVMNHHLQETSFTKEAYKKYIKDYMKSLKGKLEEQKPERVKPFMTGAAEQIKHILANFNNYQFFIGENMNPDGMVALLDYREDGVTPFMIFFKDGLEMEKAHHHHHH
**Q.** What does the source list for B1?
**A.** HRF-induced activation of mucosal mast cells ([1]; HRF dimer 100 μg/ml): significantly suppressed; OVA-induced activation of mucosal mast cells ([1]; OVA 10 ng/ml): significantly suppressed; IgE+ mMCP-1+ mast cells targeted by the His-tagged substance (IgE+ mMCP-1+ mast cells): 64.0±2.69%
